Drawing on publication PMC4534855 (2015), this text covers response for 4 variants.

Sequences and labels used below:
B1: Flag-eIF2β, wild type [S. cerevisiae] / eIF2Bε in yeast whole-cell extracts [yeast (endogenous in yeast whole-cell extracts)] (parent)
chain 1: MSSDLAAELGFDPALKKKKKTKKVIPDDFDAAVNGKENGSGDDLFAGLKKKKKKSKSVSADAEAEKEPTDDIAEALGELSLKKKKKKTKDSSVDAFEKELAKAGLDNVDAESKEGTPSANSSIQQEVGLPYSELLSRFFNILRTNNPELAGDRSGPKFRIPPPVCLRDGKKTIFSNIQDIAEKLHRSPEHLIQYLFAELGTSGSVDGQKRLVIKGKFQSKQMENVLRRYILEYVTCKTCKSINTELKREQSNRLFFMVCKSCGSTRSVSSIKTGFQATVGKRRRM
chain 2: MAGKKGQKKSGLGNHGKNSDMDVEDRLQAVVLTDSYETRFMPLTAVKPRCLLPLANVPLIEYTLEFLAKAGVHEVFLICSSHANQINDYIENSKWNLPWSPFKITTIMSPEARCTGDVMRDLDNRGIITGDFILVSGDVLTNIDFSKMLEFHKKMHLQDKDHISTMCLSKASTYPKTRTIEPAAFVLDKSTSRCIYYQDLPLPSSREKTSIQIDPELLDNVDEFVIRNDLIDCRIDICTSHVPLIFQENFDYQSLRTDFVKGVISSDILGKHIYAYLTDEYAVRVESWQTYDTISQDFLGRWCYPLVLDSNIQDDQTYSYESRHIYKEKDVVLAQSCKIGKCTAIGSGTKIGEGTKIENSVIGRNCQIGENIRIKNSFIWDDCIIGNNSIIDHSLIASNATLGSNVRLNDGCIIGFNVKIDDNMDLDRNTKISASPLKNAGSRMYDNESNEQFDQDLDDQTLAVSIVGDKGVGYIYESEVSDDEDSSTEACKEINTLSNQLDELYLSDDSISSATKKTKKRRTMSVNSIYTDREEIDSEFEDEDFEKEGIATVERAMENNHDLDTALLELNTLRMSMNVTYHEVRIATITALLRRVYHFIATQTLGPKDAVVKVFNQWGLLFKRQAFDEEEYIDLMNIIMEKIVEQSFDKPDLILFSALVSLYDNDIIEEDVIYKWWDNVSTDPRYDEVKKLTVKWVEWLQNADEESSSEEE
B2: Flag-eIF2β, wild type [S. cerevisiae] / eIF2α in yeast whole-cell extracts [yeast (endogenous in yeast whole-cell extracts)] (parent)
chain 1: B1 chain 1
chain 2: MSTSHCRFYENKYPEIDDIVMVNVQQIAEMGAYVKLLEYDNIEGMILLSELSRRRIRSIQKLIRVGKNDVAVVLRVDKEKGYIDLSKRRVSSEDIIKCEEKYQKSKTVHSILRYCAEKFQIPLEELYKTIAWPLSRKFGHAYEAFKLSIIDETVWEGIEPPSKDVLDELKNYISKRLTPQAVKIRADVEVSCFSYEGIDAIKDALKSAEDMSTEQMQVKVKLVAAPLYVLTTQALDKQKGIEQLESAIEKITEVITKYGGVCNITMPPKAVTATEDAELQALLESKELDNRSDSEDDEDESDDE

The variants in one experiment derive from B1. The experiment is described as follows: co-immunoprecipitation with FLAG affinity resin, quantified western. The settings on record: three biological replicates, read off a plot.
For chain 1 MSSDLAAELGFDPALKKKKKTKKVIPDDFDAAVNGKENGSGDDLFAGLKKKKKKSKSVSADAEAEKEPTDDIAEALGELSLKKKKKKTKDSSVDAFEKELAKAGLDNVDAESKEGTPSANSSIQQEVGLPYSELLSRFFNILRTNNPELAGDRSGPKFRIPPPVCLRDGKKTIFSNIQDIAEKLHRSPEHLIQYLFAELGTAGSVDGQKRLVIAGKFQSKQMENVLRRYILEYVTCKTCKSINTELKREQSNRLFFMVCKSCGSTRSVSSIKTGFQATVGKRRRM [chain 1 S202A K214A], the response was 0.84 eIF2Bε:eIF2β.

Consider chain 1 MSSDLAAELGFDPALKKKKKTKKVIPDDFDAAVNGKENGSGDDLFAGLKKKKKKSKSVSADAEAEKEPTDDIAEALGELSLKKKKKKTKDSSVDAFEKELAKAGLDNVDAESKEGTPSANSSIQQEVGLPYSELLSRFFNILRTNNPELAGDRSGPKFRIPPPVCLRDGKKTIFSNIQDIAEKLHRSPEHLIQYLFAELGTSGSVDGQKRLVIKGKAQSKAMENVLRRYILEYVTCKTCKSINTELKREQSNRLFFMVCKSCGSTRSVSSIKTGFQATVGKRRRM [chain 1 F217A Q221A], for which the response was 0.63 eIF2Bε:eIF2β.

The variants in the next experiment derive from B2. The experiment is described as above. The settings on record: three biological replicates, read off a plot.
On to chain 1 MSSDLAAELGFDPALKKKKKTKKVIPDDFDAAVNGKENGSGDDLFAGLKKKKKKSKSVSADAEAEKEPTDDIAEALGELSLKKKKKKTKDSSVDAFEKELAKAGLDNVDAESKEGTPSANSSIQQEVGLPYSELLSRFFNILRTNNPELAGDRSGPKFRIPPPVCLRDGKKTIFSNIQDIAEKLHRSPEHLIQYLFAELGTAGSVDGQKRLVIAGKFQSKQMENVLRRYILEYVTCKTCKSINTELKREQSNRLFFMVCKSCGSTRSVSSIKTGFQATVGKRRRM [chain 1 S202A K214A], for which the response was 0.96 eIF2α:eIF2β.

As to chain 1 MSSDLAAELGFDPALKKKKKTKKVIPDDFDAAVNGKENGSGDDLFAGLKKKKKKSKSVSADAEAEKEPTDDIAEALGELSLKKKKKKTKDSSVDAFEKELAKAGLDNVDAESKEGTPSANSSIQQEVGLPYSELLSRFFNILRTNNPELAGDRSGPKFRIPPPVCLRDGKKTIFSNIQDIAEKLHRSPEHLIQYLFAELGTSGSVDGQKRLVIKGKAQSKAMENVLRRYILEYVTCKTCKSINTELKREQSNRLFFMVCKSCGSTRSVSSIKTGFQATVGKRRRM [chain 1 F217A Q221A], the response is 0.94 eIF2α:eIF2β.
